These results are taken from US20090010911A1, “METHODS AND COMPOSITIONS FOR AFFECTING CYCLOPHILIN A REGULATION OF KINASES IN MODULATING CELLULAR ACTIVITIES” (IOWA STATE UNIVERSITY RESEARCH FOUNDATION, INC., priority 2007, published 2009).

One assay concerns the target T1, Itk kinase domain (Mus musculus, UniProt Q03526).
T1 construct: Purified 0.5 μM FLAG-tagged Itk kinase domain (Itk KD) immobilized on an anti-FLAG-resin; made in house; host or cells: Sf9 insect cells (baculovirus)
T1 sequence (Q03526 368-620 limits assumed): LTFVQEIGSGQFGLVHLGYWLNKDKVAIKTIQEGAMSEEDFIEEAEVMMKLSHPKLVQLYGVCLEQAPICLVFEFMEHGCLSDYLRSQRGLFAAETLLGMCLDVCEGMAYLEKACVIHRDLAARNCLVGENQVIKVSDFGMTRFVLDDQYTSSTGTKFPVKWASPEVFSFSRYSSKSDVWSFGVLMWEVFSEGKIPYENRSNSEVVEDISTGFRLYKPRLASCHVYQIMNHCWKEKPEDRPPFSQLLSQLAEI
Put plainly: Pull-down assay of SH2 domains with Itk kinase domain. Format: binding. The following applies: purified tagged proteins. How it is done:
3(a) Empty anti-FLAG resin (lane 1) or purified FLAG-tagged Itk kinase domain (Itk KD) immobilized on an anti-FLAG-resin (lanes 2 and 3) were incubated with purified myc-tagged control protein (lane 2) or myc-tagged Itk SH2 domain (lanes 1 and 3) in a pull-down assay. […] 3(b) Purified FLAG-tagged Itk KD (lane 1) was incubated with GST (lane 2) or GST-PLCγ1 C-terminal SH2 domain (GST-PLCγ1 SH2C) (lane 3) each immobilized on glutathione beads in a pull-down assay. […] One μM Itk 32 (lanes 1 and 3) or Itk 32 (R265K) (lanes 2 and 4), were incubated with 250 nM FLAG-tagged full-length Itk in an in vitro kinase assay. Lanes 1 and 2 are no enzyme control. […] One, 3, 5 and 10 μM PLCγ1 SH2C-Y783- (d) or PLCγ1 SH2C(R964A,R696A)-Y783- 3(e), were subjected to phosphorylation by 1.2 μM full-length FLAG-tagged Itk. Lanes 5 and 6 (containing 1 and 10 μM substrate, respectively) are no enzyme controls. Coomassie stain of the gels and anti-FLAG blots (bottom panels) show protein levels. (f & g) Interaction between the SH2 domain and Itk kinase domain is independent of the phosphorylation status of the kinase domain. […] Itk KD that is co-expressed with Lck but also pretreated with alkaline phosphatase is not phosphorylated (lane 3). […]

In another assay the test system is Lck kinase domain. The assay can be described thus: Pull-down assay of Lck kinase domain with Itk SH2 domain. The following applies: anti-Myc immunoprecipitation, anti-His blot. Format: binding. The text has this: The Itk SH2 domains were immunoprecipitated using an anti-Myc antibody and the samples were western blotted with an anti-His antibody to detect the presence of the Lck kinase domain. Lanes 1 and 2 are beads alone control.
The samples were washed, boiled, resolved on an SDS-PAGE gel, transferred to PVDF membrane and western blotted with an anti-His antibody (clone HIS.H8 from Upstate). • (1) Wilcox, H. M., and Berg, L. J. (2003) Itk phosphorylation sites are required for functional activity in primary T cells. J Biol Chem 278, 37112-21. • (2) Hawkins, J., and Marcy, A. (2001) Characterization of Itk tyrosine kinase: contribution of noncatalytic domains to enzymatic activity. Protein Expr Purif 22, 211-9.

B1: Itk SH2 domain: isolated exogenous SH2 domain of Itk, purified from bacteria (protein)
chain: EWYNKSISRDKAEKLLLDTGKEGAFMVRDSRTPGTYTVSVFTKAIISENPCIKHYHIKETNDSPKRYYVAEKYVFDSIPLLIQYHQYNGGGLVTRLRYPVCSWRQKA
In the case of B1, the “interaction with Itk kinase domain (pull-down)” value with Itk kinase domain was “interacts directly”. Further, the “interaction with Lck kinase domain (pull-down)” value in the assay with Lck kinase domain is recorded as “direct interaction”.

B2: PLCγ1 SH2C domain: isolated carboxy-terminal SH2 domain of PLCγ1 (protein)
chain: QTNAHESKEWYHASLTRAQAEHMLMRVPRDGAFLVRKRNEPNSYAISFRAEGKIKHCRVQQEGQTVMLGNSEFDSLVDLISYYEKHPLYRKMKLRYPI
With B2, the “interaction with Itk kinase domain (pull-down)” value with Itk kinase domain was “interacts directly”.
